Assay results as given in patent publication US20200407442A1 (WUXI BIOLOGICS IRELAND, published 2020).

B1: 1.53.3-uAb-IgG4k (antibody, V domains shown)
VH: QVQLQQWGAGLLKPSETLSLTCGVYGGSFSGYYWSWIRQPPGMGLEWIGEINHRGNTNYNPSLKSRVTISEDTSKNQFSLRLSSVTAADTAVYFCTRGEDYSDYDYYGDFWGQGTLVTVSS
VL: EIVLTQSPATLSLSQGERATLSCRASQSISSYLAWYQQKPGQAPRLLIYAASNRATGIPARFSGSGSGTDFTLTISSLEPEDFAIYYCQQRSNWPLTFGGGTKVEIK
notes: Fully human antibody from OMT rats; IgG4 kappa by its name
B2: 3.40.19-uAb-IgG4L (antibody, V domains shown)
VH: QLQLQESGPGLVKPSETLSLTCTVSGDSISSTSYYWGWIRQPPGKGLEWIGSFYYSGSTYYNPSLKSRVTISVDTSKNQFSLKLNSVTAADTAVYYCARMQLWSYDVDVWGQGTTVTVSS
VL: QSALTQPASVSGSPGQSITISCTGTSSDVGGYDYVAWYQQHPGKVPKLMIYDVSERPSGVSNRFSGSKSGNTASLTISGLQAEDEADYYCSSYTSTTTLVVFGGGTKLSVL
notes: Fully human antibody from OMT rats; IgG4 lambda by its name; also called 3.40.19-uAb-hIgG4L

Legend:
Experiment in all cases: FACS, 1 ug/mL antibody, transfected 293F cells
[1] = target: T1, Variant 5: xPro1.FL-x5 (human; mouse)
T1 construct: Chimeric full-length LAG-3 on transfected 293F cells
T1 chain: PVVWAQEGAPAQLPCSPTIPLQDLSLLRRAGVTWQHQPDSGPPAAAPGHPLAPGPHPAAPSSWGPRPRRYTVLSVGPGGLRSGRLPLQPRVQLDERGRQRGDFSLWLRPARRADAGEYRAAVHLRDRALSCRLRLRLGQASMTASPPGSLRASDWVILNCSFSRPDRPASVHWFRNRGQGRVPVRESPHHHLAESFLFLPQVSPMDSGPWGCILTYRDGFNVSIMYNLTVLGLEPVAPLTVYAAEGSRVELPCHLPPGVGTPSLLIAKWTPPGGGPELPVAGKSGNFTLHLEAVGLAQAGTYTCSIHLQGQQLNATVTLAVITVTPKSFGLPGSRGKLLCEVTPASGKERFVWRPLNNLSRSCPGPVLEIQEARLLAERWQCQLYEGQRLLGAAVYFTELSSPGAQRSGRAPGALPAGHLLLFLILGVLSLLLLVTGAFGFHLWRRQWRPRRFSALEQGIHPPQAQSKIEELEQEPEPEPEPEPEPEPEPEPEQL
Protocol: (§1) The 10 variants were cloned into pcDNA3 vector and used for 293F cell transfection. Briefly, 293F cells were diluted to a density of 1×10⁶ cells/mL with FreeStyle 293F medium and aliquots of 3 mL/well were added to 24-well plate. Transfections were performed using 293fectin reagent (Life Technologies). For each transfection, 3 μg of DNA were diluted in 150 μOpti-MEM I-reduced serum medium (Life Technologies), and then combined with 6μL 293fectin reagent pre-diluted in 150 μL Opti-MEM I reduced serum medium. The DNA/[…] mixture was allowed to stand at 25° C. for 20 min before being added to the culture. The transfected cells were analyzed by flow cytometry at 48 h post-transfection.
(§2) Binding of antibodies to chimeric LAG-3 variants or full length human/mouse LAG-3 was analyzed by flow cytometry. Briefly, 1 μg/mL antibodies were incubated with chimeric LAG-3-expressing transfected 293F cells for 1 hour at 4° C., and then incubated with 3 μg/mL goat anti-human IgG Fc R-PE (Jackson) for 40 min at 4° C. Cells were analyzed with flow cytometer.

[2] = target: T2, Variant 6: xPro1.FL-x6 (human; mouse)
T2 construct: Chimeric full-length LAG-3 on transfected 293F cells
T2 chain: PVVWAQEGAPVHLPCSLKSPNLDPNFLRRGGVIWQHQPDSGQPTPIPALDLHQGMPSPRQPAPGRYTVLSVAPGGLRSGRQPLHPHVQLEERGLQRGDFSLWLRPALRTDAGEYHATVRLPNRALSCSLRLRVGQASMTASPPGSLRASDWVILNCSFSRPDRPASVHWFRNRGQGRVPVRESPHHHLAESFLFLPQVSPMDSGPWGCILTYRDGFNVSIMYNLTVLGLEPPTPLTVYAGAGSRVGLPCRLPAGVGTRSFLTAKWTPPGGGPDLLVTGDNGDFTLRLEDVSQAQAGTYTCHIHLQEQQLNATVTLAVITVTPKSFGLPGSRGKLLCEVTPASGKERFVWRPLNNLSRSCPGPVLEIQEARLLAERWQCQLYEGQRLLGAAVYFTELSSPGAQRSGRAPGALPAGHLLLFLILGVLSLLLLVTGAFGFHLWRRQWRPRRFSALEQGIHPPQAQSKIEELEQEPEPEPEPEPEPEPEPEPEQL
Protocol: as §1, §2

[3] = target: T3, Variant 10: xPro1.FL-x10 (human; mouse)
T3 construct: Chimeric full-length LAG-3 on transfected 293F cells
T3 chain: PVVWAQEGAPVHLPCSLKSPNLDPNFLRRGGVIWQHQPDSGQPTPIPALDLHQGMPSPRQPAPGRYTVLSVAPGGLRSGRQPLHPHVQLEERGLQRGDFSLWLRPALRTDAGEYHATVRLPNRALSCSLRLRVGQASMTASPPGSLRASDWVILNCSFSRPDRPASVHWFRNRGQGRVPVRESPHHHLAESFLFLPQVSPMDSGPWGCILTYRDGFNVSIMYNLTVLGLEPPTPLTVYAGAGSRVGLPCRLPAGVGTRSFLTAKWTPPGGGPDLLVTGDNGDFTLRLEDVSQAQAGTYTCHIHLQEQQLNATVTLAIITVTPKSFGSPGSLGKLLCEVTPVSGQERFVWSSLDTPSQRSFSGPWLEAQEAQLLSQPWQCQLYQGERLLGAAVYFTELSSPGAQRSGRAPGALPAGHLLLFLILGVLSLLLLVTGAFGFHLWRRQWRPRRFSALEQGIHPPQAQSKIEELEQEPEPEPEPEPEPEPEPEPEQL
Protocol: as §1, §2

[4] = target: T4, full-length human LAG-3 on cells (human, UniProt P18627 23-525)
T4 construct: Expressed on Flp-In-293, CHO or 293F transfectants; also called hPro1.FL; cell surface human LAG-3
T4 sequence: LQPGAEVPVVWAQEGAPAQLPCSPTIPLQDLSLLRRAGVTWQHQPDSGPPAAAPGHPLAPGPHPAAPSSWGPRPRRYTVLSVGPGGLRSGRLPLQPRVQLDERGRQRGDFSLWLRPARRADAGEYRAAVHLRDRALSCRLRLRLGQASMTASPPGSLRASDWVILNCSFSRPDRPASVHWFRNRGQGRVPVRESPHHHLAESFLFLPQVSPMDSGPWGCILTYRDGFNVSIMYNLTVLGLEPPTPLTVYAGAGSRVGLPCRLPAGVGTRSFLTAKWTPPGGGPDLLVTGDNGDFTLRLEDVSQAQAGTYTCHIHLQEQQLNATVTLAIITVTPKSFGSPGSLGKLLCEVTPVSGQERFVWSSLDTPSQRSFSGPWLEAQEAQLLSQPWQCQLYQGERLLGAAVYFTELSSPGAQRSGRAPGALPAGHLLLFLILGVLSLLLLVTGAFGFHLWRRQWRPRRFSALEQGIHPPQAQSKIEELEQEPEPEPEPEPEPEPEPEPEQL
Protocol: as §1, §2

Row | Binder | MFI [1] | PE+ % [1] [%] | MFI [2] | PE+ % [2] [%] | MFI [3] | PE+ % [3] [%] | MFI [4] | PE+ % [4] [%]
1 | B1 | 6260 | 97.1 | 59.9 | 1.86 | 42.3 | 1.98 | 6540 | 96.8
2 | B2 | 7070 | 75.9 | 44.1 | 0.674 | 68.5 | 0.988 | 6520 | 83.5
